In article PMC9221443, “Peptidomimetics Based on C-Terminus of Blm10 Stimulate Human 20S Proteasome Activity and Promote Degradation of Proteins” (Biomolecules, 2022):

Test system: 20S proteasome (h20S)
Test: Microscale thermophoresis (MST) protein-proteasome interaction
Format: binding, human
Settings: NT-647-labeled protein titrated with h20S 0.06-1965 nM; 22 °C; 20 mM Tris-HCl pH 7.2; three independent experiments; read-out: EC50 of binding to 20S proteasome (MST, Hill fit)
Experimental: Enolase, α-synuclein and their oxidized forms were labeled using Monolith Protein Labeling Kit RED-NHS 2nd Generation Amine Reactive, NT-647 (Nanotemper, München, Germany), according to the manufacturer instructions. The labeling process was carried out in 50 mM HEPES buffer, pH 7.4, in the protein:NT-647 1:2 ratio. The incubation time was 60 min for enolase and 30 min for α-synuclein, at 21 °C. After labeling, the excess of the fluorescent reagent was removed using the columns provided by the manufacturer and 20 mM Tris-HCl buffer, pH 7.2, containing 200 mM NaCl and 10% glycerol. The obtained labeled proteins were concentrated on Amicon 3K spin-columns (Merck, Darmstadt, Germany). Protein concentrations were determined by measuring absorbance at 280 nm, using UV/Vis spectrophotometer (DU®730 Beckman Coulter).
Direct interactions between the fluorescently labeled, native and oxidized, proteins and the 20S proteasome were examined using microscale thermophoresis (NanoTemper Monolith NT.115). The labeled protein concentration was kept constant at 250 nM for native and oxidized α-synuclein and 125 nM and 25 nM for native and oxidized enolase, respectively. […] The EC50 values were calculated based on results obtained in three independent experiments.

B1: oxidized enolase: human enolase 2 incubated with 0.5% H2O2 for 2 h at 30 °C (protein, UniProt P09104 2-434, looked up)
Gamma-enolase: SIEKIWAREILDSRGNPTVEVDLYTAKGLFRAAVPSGASTGIYEALELRDGDKQRYLGKGVLKAVDHINSTIAPALISSGLSVVEQEKLDNLMLELDGTENKSKFGANAILGVSLAVCKAGAAERELPLYRHIAQLAGNSDLILPVPAFNVINGGSHAGNKLAMQEFMILPVGAESFRDAMRLGAEVYHTLKGVIKDKYGKDATNVGDEGGFAPNILENSEALELVKEAIDKAGYTEKIVIGMDVAASEFYRDGKYDLDFKSPTDPSRYITGDQLGALYQDFVRDYPVVSIEDPFDQDDWAAWSKFTANVGIQIVGDDLTVTNPKRIERAVEEKACNCLLLKVNQIGSVTEAIQACKLAQENGWGVMVSHRSGETEDTFIADLVVGLCTGQIKTGAPCRSERLAKYNQLMRIEEELGDEARFAGHNFRNPSVL
modifications: H2O2-oxidized
notes: human enolase 2 incubated with 0.5% H2O2 for 2 h at 30 °C
For B1, the EC50 was 87.8 ± 12.9 nM.
